In test [1] the target is Free BSA (Sigma A6003) (UniProt P02769). The test is described as follows: ELISA, free BSA coated at 300 ng/well, anti-IgG (gamma) detection. (An ELISA detects its analyte on a solid surface through an enzyme-linked reagent.)
Test [2] shares this target. The test is described as follows: ELISA, free BSA coated at 500 ng/well in sodium bicarbonate, gamma detection, antibody at 10 µg/ml.
The target is the same in test [3]. The test can be described thus: ELISA, free BSA coated at 500 ng/well in sodium bicarbonate, gamma detection, antibody at 0.1 µg/ml.
Test [4] shares this target. The test can be described thus: ELISA, free BSA coated at 500 ng/well in sodium bicarbonate, gamma detection, antibody at 1 µg/ml.

Sequence of UniProt P02769 (P02769 25-607 limits assumed): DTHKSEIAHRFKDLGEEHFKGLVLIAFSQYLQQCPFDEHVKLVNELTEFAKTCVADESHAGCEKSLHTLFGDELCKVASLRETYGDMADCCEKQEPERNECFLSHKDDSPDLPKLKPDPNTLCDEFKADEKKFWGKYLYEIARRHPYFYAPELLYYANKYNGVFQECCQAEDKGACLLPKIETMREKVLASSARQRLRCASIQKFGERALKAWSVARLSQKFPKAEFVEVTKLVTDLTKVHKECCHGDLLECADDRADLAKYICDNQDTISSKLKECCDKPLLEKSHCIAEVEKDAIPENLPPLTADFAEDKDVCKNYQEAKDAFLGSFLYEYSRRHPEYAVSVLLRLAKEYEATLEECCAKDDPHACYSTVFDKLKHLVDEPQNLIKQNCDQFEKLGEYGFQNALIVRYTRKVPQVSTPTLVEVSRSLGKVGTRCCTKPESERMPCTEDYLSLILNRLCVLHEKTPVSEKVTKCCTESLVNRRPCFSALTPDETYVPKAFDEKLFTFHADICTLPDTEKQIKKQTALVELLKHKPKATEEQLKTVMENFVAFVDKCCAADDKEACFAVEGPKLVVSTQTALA

B1: 7B10 (antibody, IgM, V domains shown)
VH: QVQLQQSGAELAKPGASVKLSCKASGYTFTSYWMHWVKQRPGQGLEWIGYINPSSGYTKYNQKFKDKATLTADKSSSTAYMQLSSLTYEDSAVYYCARGGYYGFAYWGQGTLVTVSA
VL: QIVLTQSPALMSASPGEKVTMTCSASSSVSYMYWYQQKPRSSPKPWIYLTSNLASGVPARFSGSGSGTSYSLTISSMEAEDAATYYCQQWSSNPLTFGAGTKLELK
Regarding B1, the OD in the test with Free BSA (Sigma A6003) [1] came to 0.077 OD.

B2: 9H11 (antibody, IgM, V domains shown)
VH: QVQLQQSGAELAKPGASVKLSCKASGYTFTSYWMHWVKQRPGQGLEWIGYINPSSGYTKYNQKFKDKATLTADKSSSTAYMQLSSLTYEDSAVYYCARGGYYGFAYWGQGTLVTVSA
VL: QIVLTQSPALMSASPGEKVTMTCSASSSVSYMYWYQQKPRSSPKPWIYLTSNLASGVPARFSGSGSGTSYSLTISSMEAEDAATYYCQQWSSNPLTFGAGTKLELK
B2 came in with an OD with Free BSA (Sigma A6003) [1] of 0.105 OD.

B3: 6B5 (antibody, V domains shown)
VH: QVQLQQSDAELVKPGASVKISCKVSGYTFTDHTIHWMKQRPEQGLEWIGYNYPRDGSTKYNEKFKGKATLTADKSSSTAYMQLNSLTSEDSAVYFCAKGFITTVVPSAYWGQGTLVTVSA
VL: DVQITQSPSYLAASPGETITINCRASKSISKYLAWYQEKPGKTNKLLIYSGSTLQSGIPSRFSGSGSGTDFTLTISSLEPEDFAMYYCQQHNEYPWTFGGGTKLEIK
Regarding B3, the OD with Free BSA (Sigma A6003) [2] amounted to 0.15 OD; in the test with Free BSA (Sigma A6003) [3], 0.079 OD; with Free BSA (Sigma A6003) [4], 0.119 OD; with Free BSA (Sigma A6003) [1] it was 1.29 OD.

B4: 9H10 (antibody, IgM, V domains shown)
VH: QVQLKQSGPGLVQPSQSLSITCTVSGFSLTSYGVHWVRQSPGKGLEWLGVIWSGGSTDYNAAFISRLSISKDNSKSQVFFKMNSLQADDTAIYYCARNYGYDYAMDYWGQGTSVTVSS
VL: DILLTQSPAILSVSPGERVSFSCRASQSIGTSIHWYQQRTNGSPRLLIKYASESISGIPSRFSGSGSGTDFTLSINSVESEDIADYYCQQSNSWPFTFGSGTKLEIK
In the test with Free BSA (Sigma A6003) [1], B4 returned an OD of 0.095 OD.

B5: 6C8 (antibody, V domains shown)
VH: QVQLQQSGAELVKPGASVKISCKASGYAFSSYWMNWVKQRPGKGLEWIGQIYPGDGDTNYNGKFKGKATLTADKSSSTAYMQLSSLTSEDSAVYFCTRRCYYGLYFDVWGTGTTVTVSS
VL: DIKMTQSPSSRYASLGERVTITCKASQDINRYLSWFQQKPGKSPKTLIYRANRLVDGVPSRFSGSGSGQDYSLTISSLEYEDMGIYYCLQYDEFPYTFGGGTKLEIK
For B5, the OD in the test with Free BSA (Sigma A6003) [2] stood at 0.062 OD; with Free BSA (Sigma A6003) [3], 0.056 OD; in the test with Free BSA (Sigma A6003) [4] it was 0.057 OD; with Free BSA (Sigma A6003) [1], 0.098 OD.

These data come from patent US20190389970A1.
